Results as given in patent US20220041738A1 (SAITAMA MEDICAL UNIVERSITY, published 2022).
Positions count from the first letter of the chain named. One block for each binder: values may come before it.

Tests used:
[1] = target: T1, wild-type human ALK2 on cells (cDNA in pcDEF3) (human, UniProt Q04771 21-509); assay: immunofluorescence (legend of FIG. 4)
T1 construct: also called wild-type ALK2; ALK2 (WT)
T1 sequence: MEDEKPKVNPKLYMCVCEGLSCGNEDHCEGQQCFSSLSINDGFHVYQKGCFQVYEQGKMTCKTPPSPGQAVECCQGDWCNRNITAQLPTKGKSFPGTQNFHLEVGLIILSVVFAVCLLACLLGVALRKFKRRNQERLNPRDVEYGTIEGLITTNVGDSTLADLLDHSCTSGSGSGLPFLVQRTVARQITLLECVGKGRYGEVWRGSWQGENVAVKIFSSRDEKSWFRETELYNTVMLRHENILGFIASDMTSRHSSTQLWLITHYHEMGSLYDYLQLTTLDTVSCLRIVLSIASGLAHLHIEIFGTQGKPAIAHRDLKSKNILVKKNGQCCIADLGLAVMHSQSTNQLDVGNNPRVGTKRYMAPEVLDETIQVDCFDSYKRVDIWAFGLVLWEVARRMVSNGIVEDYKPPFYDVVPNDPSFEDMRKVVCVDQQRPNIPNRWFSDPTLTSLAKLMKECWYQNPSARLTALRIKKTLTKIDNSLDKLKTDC
Summary of the method: (§1)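 C2C12 mouse myoblasts transfected overnight with human ALK2 cDNA (wild-type or FOP variants incl. G325A, pcDEF3 vector). Cells formalin-fixed, goat-serum blocked, stained 1 h RT with purified IgG at 10 µg/mL, then Alexa 594 anti-rat IgG 1 h; DAPI nuclei, fluorescence microscopy read-out.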

[2] = target: T2, human ALK2-R258S on cells (human, UniProt Q04771 21-509); assay: immunofluorescence (legend of FIG. 4)
T2 sequence: T1 sequence with R238S
Summary of the method: as §1

[3] = target: T3, human ALK2-Q207E on cells (human, UniProt Q04771 21-509); assay: immunofluorescence on transfected, formalin-fixed C2C12 cells, IgG at 10 µg/mL, Alexa 594 anti-rat IgG
T3 sequence: T1 sequence with Q187E
Experimental: (§2) Mouse C2C12 cells were seeded into a 96-well plate (Greiner Bio-One) at 0.5×10³ cells/well, and cultured in 15% FBS-containing DMEM medium overnight under the conditions of 5% CO₂ at 37° C. On the following day, the C2C12 cells were transfected with each of a wild-type human ALK2 cDNA integrated into pcDEF3; pcDEF3/human ALK2-L196P, pcDEF3/human ALK2-P197_F198delinsL, pcDEF3/human ALK2-R202I, pcDEF3/human ALK2-R206H, pcDEF3/human ALK2-Q207E, pcDEF3/human ALK2-R258S, pcDEF3/human ALK2-G325A, pcDEF3/human ALK2-G328E, pcDEF3/human ALK2-G328R, pcDEF3/human ALK2-G328W, pcDEF3/human ALK2-G356D, and pcDEF3/human ALK2-R375P, which are variants identified in FOP; and pcDEF3 as a control, using Lipofectamine 2000 (Invitrogen), and further cultured overnight.
(§3) The C2C12 cells were fixed with 10% neutral formalin (Nacalai Tesque, Japan) for 20 minutes at room temperature, and then blocked with 10% goat normal serum for 30 minutes. After the blocking agent was removed, purified IgG diluted to 10 μg/mL with the blocking agent was added, and the cells were left for 1 hour at room temperature. After the cells were washed with PBS three times, Goat Alexa 594-conjugated anti-rat IgG (Invitrogen) diluted to 1:1000 with the blocking agent was added, and the cells were left for 1 hour at room temperature. After the cells were washed with PBS three times, the cells were fixed with 10% neutral formalin for 15 minutes at room temperature, and nuclear-stained with DAPI (LifeTechnologies). Fluorescent signals were analyzed with a fluorescence microscope BZ-9000 (Keyence).

[4] = target: T4, human ALK2-G328W on cells (human, UniProt Q04771 21-509); assay: as above
T4 sequence: T1 sequence with G308W
Experimental: as §2, §3

binding result [1]: binds | binding result [2]: binds
B1: rat anti-ALK2 monoclonal antibody A2-15A (antibody, V domains shown)
VH: EVQLVESGGGLVQPGRSLKLSCAASGFTFSHYYMAWVRQAPTKGLEWVASITNSGGSINYRDSVKGRFTISRDNAKSTLYLQMDSLRSEDTATYYCTREGGENYGGYPPFAYWGQGTLVTVSS
VL: DIVLTQSPALAVSLGQRATISCRANQGVSLSRYNLMHWYQQKPGQKPKLLIYRSSNLASGIPARFSGSGSGTDFTLTINPVQADDIATYYCQQSRESPFTFGAGTKLELKR
notes: Rat monoclonal IgG from a hybridoma; also called 15A6

binding result [1]: binds | binding result [2]: binds
B2: rat anti-ALK2 monoclonal antibody A2-11E (antibody, V domains shown)
VH: EVQLVETGGGLVQPGRSLKLSCVASGFTFSNYYMYWIRQAPGKGLEWISSINTDGGSTYYPDSVKGRFAISRDNAENTVYLQMNSLRSEDTATYYCAKSTPNIPLAYWGQGTLVTVSS
VL: DIQMTQSPSLLSASVGDRVTLSCKASQNIYKYLNWFQQKLGEAPKLLIYYSNSLQTGIPSRFSGSGSGTDFTLTISSLQPEDVAIYFCFQYSSGPTFGPGTKLELKR
notes: Rat monoclonal IgG from a hybridoma; also called 11E2

binding result [3]: binds | binding result [4]: binds
B3: rat anti-ALK2 monoclonal antibody A2-25C (antibody, V domains shown)
VH: EVQLVESGGGLVQPGGSLKLSCAASGFTFSYYAMSWVCQAPTKGLEWVASISRGGDNTYYRDTVKGRFTTSRDNAKNTLYLQMDSLRSEDTATYYCARLNYNNYFDYWGQGVMVTVSS
VL: DIQMTQSPASLSASLEEIVTITCQASQDIGNWLSWYQQKPGKSPQLLIYGATSLADGVPSRFSGSRSGTQYSLKISRLRVEDIGIYYCLQAYSAPFTFGSGTKLEIKR
notes: Rat monoclonal IgG from a hybridoma; also called 25C11

binding result [3]: binds | binding result [4]: binds
B4: rat anti-ALK2 monoclonal antibody A2-27D (antibody, V domains shown)
VH: EVQLVESGGGLVQPGRSLKLSCLASGSTFSNYGMKWIRQAPGKGLEWVASISRSSTYIYYADTVKGRFTISRDNARNTLYLQMTSLRSEDTALYYCAAAISTPFYWYFDFWGPGTVVTVSS
VL: EIVLTQSPTTMAASPGEKVTLNCLASSSVSYMTWYQQKSGASPKLWIYGTSNLASGVPNRFSGSGSGTSYSLAISSMEAEDVATYYCLHLTSYPPYTFGAGTKLELKR
notes: Rat monoclonal IgG from a hybridoma; also called 27D11
